Test results from article PMC10318897, “The structure of Leptospira interrogans GAPDH sheds light into an immunoevasion factor that can target the anaphylatoxin C5a of innate immunity” (Frontiers in Immunology, 2023).

Legend:
[1] = system: O=C[C@H](O)COP(=O)(O)O; assay: purified protein; settings: 2 mM NAD+, 5 mM phosphate, 40 mM Tris-HCl pH 8.5, 2 mM EDTA, 25 °C, fit with substrate inhibition
[2] = system: NC(=O)c1ccc[n+]([C@@H]2O[C@H](COP(=O)(O)OP(=O)(O)OC[C@H]3O[C@@H](n4cnc5c(N)ncnc54)[C@H](O)[C@@H]3O)[C@@H](O)[C@H]2O)c1; assay: purified protein; settings: 2 mM G3P, 5 mM phosphate, 40 mM Tris-HCl pH 8.5, 2 mM EDTA, 25 °C

## LiGAPDH (Leptospira interrogans serovar Copenhageni str. Fiocruz L1-130)
[1]
  Km: 0.6 ± 0.1 mM
  kcat: 70 ± 7 s⁻¹
  kcat/Km: 121000 ± 24000 M⁻¹ s⁻¹
[2]
  Km: 0.081 ± 0.006 mM
  kcat: 44.2 ± 0.9 s⁻¹
  kcat/Km: 543000 ± 44000 M⁻¹ s⁻¹
